Consider one molecule from patent US20060073508A1 (published 2006).

The target of this assay is GRK2 (βARK1). Description: cell-based or functional assay.

B1: hemagglutinin epitope-tagged wild-type human alpha-2B adrenergic receptor (receptor)
chain: YPYDVPDYAMDHQDPYSVQATAAIAAAITFLILFTIFGNALVILAVLTSRSLRAPQNLFLVSLAAADILVATLIIPFSLANELLGYWYFRRTWCEVYLALDVLFCTSSIVHLCAISLDRYWAVSRALEYNSKRTPRRIKCIILTVWLIAAVISLPPLIYKGDQGPQPRGRPQCKLNQEAWYILASSIGSFFAPCLIMILVYLRIYLIAKRSNRRGPRAKGGPGQGESKQPRPDHGGALASAKLPALASVASAREVNGHSKSTGEKEEGETPEDTGTRALPPSWAALPNSGQGQKEGVCGASPEDEAEEEEEEEEEEEECEPQAVPVSPASACSPPLQQPQGSRVLATLRGQVLLGRGVGAIGGQWWRRRAQLTREKRFTFVLAVVIGVFVLCWFPFFFSYSLGAICPKHCKVPHGLFQFFFWIGYCNSSLNPVIYTIFNQDFRRAFRRILCRPWTQTAW
In the case of B1, the “agonist-promoted whole cell phosphorylation of the receptor (10 µM norepinephrine)” value was determined as 5.84 fold increase.
